Test results published in patent US20260250420A1 (SICHUAN KELUN BIOTECH BIOPHARMACEUTICAL, published 2026).

T1: human PTK7 on cells (tumor cells endogenously expressing PTK7); CHO-hPTK7, CHO-S-hPTK7 and 293T-hPTK7 … (human, UniProt Q13308 31-1070)
T1 sequence (looked up): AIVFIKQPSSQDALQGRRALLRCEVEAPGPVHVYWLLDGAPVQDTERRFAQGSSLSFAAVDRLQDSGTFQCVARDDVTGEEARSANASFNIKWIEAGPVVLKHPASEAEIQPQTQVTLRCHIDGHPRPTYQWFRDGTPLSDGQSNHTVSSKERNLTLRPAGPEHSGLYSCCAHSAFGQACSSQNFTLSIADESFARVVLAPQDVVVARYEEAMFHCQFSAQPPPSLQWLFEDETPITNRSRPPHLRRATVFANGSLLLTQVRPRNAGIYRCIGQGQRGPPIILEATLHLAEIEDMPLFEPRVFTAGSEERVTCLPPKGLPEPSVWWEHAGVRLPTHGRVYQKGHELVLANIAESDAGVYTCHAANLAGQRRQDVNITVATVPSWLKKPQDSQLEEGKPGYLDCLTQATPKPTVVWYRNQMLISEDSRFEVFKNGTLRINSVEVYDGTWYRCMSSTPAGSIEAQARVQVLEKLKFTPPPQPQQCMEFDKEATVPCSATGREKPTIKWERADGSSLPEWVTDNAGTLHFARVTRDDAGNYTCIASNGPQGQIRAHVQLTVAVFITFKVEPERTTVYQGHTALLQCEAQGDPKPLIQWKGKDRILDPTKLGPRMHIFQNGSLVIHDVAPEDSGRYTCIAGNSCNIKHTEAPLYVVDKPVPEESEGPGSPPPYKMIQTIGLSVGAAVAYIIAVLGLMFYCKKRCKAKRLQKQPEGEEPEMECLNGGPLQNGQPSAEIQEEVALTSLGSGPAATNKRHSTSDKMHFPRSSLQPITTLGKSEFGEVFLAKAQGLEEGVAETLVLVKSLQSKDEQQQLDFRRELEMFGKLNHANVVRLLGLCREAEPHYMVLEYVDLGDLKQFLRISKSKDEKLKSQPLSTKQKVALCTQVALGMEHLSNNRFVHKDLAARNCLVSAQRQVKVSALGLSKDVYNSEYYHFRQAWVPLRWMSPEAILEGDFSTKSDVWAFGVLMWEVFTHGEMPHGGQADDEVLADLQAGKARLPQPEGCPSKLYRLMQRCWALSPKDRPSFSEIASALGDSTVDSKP

T2: monkey PTK7 protein (extracellular sequence of monkey PTK7 with C-terminal 6×His tag) (monkey)
T2 chain: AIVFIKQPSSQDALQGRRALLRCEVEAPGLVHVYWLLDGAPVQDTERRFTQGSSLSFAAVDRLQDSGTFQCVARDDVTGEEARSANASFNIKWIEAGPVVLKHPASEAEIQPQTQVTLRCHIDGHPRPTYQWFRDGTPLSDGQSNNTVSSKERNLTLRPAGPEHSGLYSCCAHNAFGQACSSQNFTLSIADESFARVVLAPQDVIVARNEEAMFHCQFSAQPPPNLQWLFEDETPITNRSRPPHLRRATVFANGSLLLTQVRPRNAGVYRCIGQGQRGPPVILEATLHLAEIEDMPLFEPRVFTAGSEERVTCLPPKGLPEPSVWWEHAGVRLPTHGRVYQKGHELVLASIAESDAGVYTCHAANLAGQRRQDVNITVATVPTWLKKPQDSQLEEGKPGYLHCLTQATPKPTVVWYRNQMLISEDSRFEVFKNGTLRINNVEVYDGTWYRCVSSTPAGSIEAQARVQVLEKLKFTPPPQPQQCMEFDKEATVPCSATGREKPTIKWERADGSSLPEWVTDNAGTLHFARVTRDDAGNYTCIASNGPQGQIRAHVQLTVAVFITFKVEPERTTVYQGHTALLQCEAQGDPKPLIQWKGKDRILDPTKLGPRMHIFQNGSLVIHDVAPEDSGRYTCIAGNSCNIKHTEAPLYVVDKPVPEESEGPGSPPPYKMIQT


Tests used:
[1] = biological target: T1, human PTK7 on cells (tumor cells …); experiment: cell-based or functional assay
[2] = biological target: T2, monkey PTK7 protein (extracellular …); experiment: BLI (ForteBio), antibody on Protein A sensor, monkey PTK7 protein in solution
Excerpt: The dynamic affinity of the control Hu24 and candidate antibodies 64A10HZ, 101A6HZ, 4E12HZ and 19C2HZ with human PTK7-His was detected by using ForteBio (Pall life sciences).
ELISA and ForteBio were adopted to detect binding of the anti-human PTK7 chimeric and humanized antibodies to the monkey, mouse and rat PTK7 proteins.

[3] = biological target: T3, rat PTK7 protein (extracellular sequence of rat PTK7 with C-terminal 6×His tag) (rat, UniProt A0A8I6ALM9 40-713); experiment: ELISA, coated rat PTK7 protein
T3 construct: extracellular domain; Expressed transiently in HEK293 cells

[4] = biological target: T1, human PTK7 on cells (tumor cells …); experiment: flow cytometry on OVCAR-3 cells
Excerpt: (§1) A flow cytometer (Beckman, Cytoflex) was used for detecting the affinity of the anti-human PTK7 chimeric and humanized antibodies with human non-small cell lung cancer cells H1299, human lung adenocarcinoma cells H1975, human breast cancer cells T47D, human ovarian cancer cells OVCAR-3 (all purchased from NANJING COBIOER BIOSCIENCES CO., LTD) and CHO-hPTK7 overexpression cells.
(§2) The adherent cells were digested by using a pancreatin (Gibco) solution; a proper amount of cells were counted and taken, washed twice by using 1×PBS, and re-suspended in a 1% BSA solution; and then the cells were transferred into a 96-well deep plate at a density of 50 μl/well; a candidate antibody was diluted by using 1% BSA, then 50 μl of diluted antibody was added into the deep plate containing the cells, and incubated for 40 min at 4° C.; the cells were washed twice by using PBS, then 50 μl of diluted secondary antibody was added into each well, uniformly mixed, and incubated for 30 min at 4° C.; and the cells were washed twice by using PBS, then re-suspended in 400 μl of PBS, and subjected to examination by flow cytometer.

[5] = biological target: T2, monkey PTK7 protein (extracellular …); experiment: ELISA, coated monkey PTK7 protein
[6] = biological target: T1, human PTK7 on cells (tumor cells …); experiment: flow cytometry on CHO-hPTK7 overexpression cells
Excerpt: as §1, §2

| FADU cell endocytosis activity, EC50 [1] | Kd [2] | binding result [3] | EC50 [4] | EC50 [5] | EC50 [6] | Binder |
| --- | --- | --- | --- | --- | --- | --- |
| 0.147 µg/mL | 26.7 nM | no binding | 0.0613 µg/mL | 0.0201 µg/mL | – | 64A10HZ (anti-human PTK7 humanized antibody) (antibody, human IgG1, kappa, V domains shown, Human IgG1 heavy chain constant region and human Kappa light chain constant region; expressed in CHO-S cells) VH: QVQLQESGPGLVKPSETLSLTCTVSGFSLTSYGVYWVRQPPGKGPEWLGVIWTSGNTNYNPSLKSRLTISKDNSKNQVSLKLSSVTAADTAVYYCVKHDGGNYVGVMNYWGQGTLVTVSS VL: EIVMTQSPDFQSVTPKEKVTITCRASQSISDYLHWYQQKPDQSPKLLIKYASQSISGVPSRFSGSGSGSDFTLTINSLEAEDAATYYCQNGHSFPPTFGQGTKLEIKR |
| 0.115 µg/mL | 134 nM | no binding | – | 1.23 µg/mL | 0.176 µg/mL | 101A6HZ (anti-human PTK7 humanized antibody) (antibody, human IgG1, kappa) heavy: not shown light: DIVMTQSPDSLAVSLGERATINCKASQDVGSAVIWYQQKPGQSPKLLIYWASTRHTGVPDRFSGSGSGTDFTLTISSLQAEDVAVYYCQQYSSYPLTFGQGTKLEIKRTVAAPSVFIFPPSDEQLKSGTASVVCLLNNFYPREAKVQWKVDNALQSGNSQESVTEQDSKDSTYSLSSTLTLSKADYEKHKVYACEVTHQGLSSPVTKSFNRGEC |
| 0.18 µg/mL | 11.9 nM | – | 0.123 µg/mL | 0.134 µg/mL | 0.308 µg/mL | Hu24 (PTK7 control antibody, taken from Hu24 in the Patent CN201580030255) (antibody) chain 1: QVQLVQSGPEVKKPGASVKVSCKASGYTFTDYAVHWVRQAPGKRLEWIGVISTYNDYTYNNQDFKGRVTMTRDTSASTAYMELSRLRSEDTAVYYCARGNSYFYALDYWGQGTSVTVSS chain 2: EIVLTQSPATLSLSPGERATLSCRASESVDSYGKSFMHWYQQKPGQAPRLLIYRASNLESGIPARFSGSGSGTDFTLTISSLEPEDFAVYYCQQSNEDPWTFGGGTKLEIK |
